# No end group written: not given here. *: point of attachment. thioester = C-terminal thioester, without the water-soluble polymer; Acm = CC(=O)NC*
# Assay: Dissolution of deprotected and cleaved crude peptide-thioester in 50% aqueous acetonitrile containing 0.08% TFA
# Type: physicochemical
# Settings: 50% aqueous acetonitrile containing 0.08% trifluoroacetic acid (TFA)
row,Substance,dissolution of deprotected and cleaved peptide-thioester
1,"GRFN 1852: SEQ ID NO:3 peptide L-thioester, non-polymer modified; comparator (C(Acm)LSQLHSGLFLYQGLLQALEGISPELGPTLDTLQLDVADFATTIWQQMEEL-thioester)",poorly soluble
2,"GRFN 1852-PLP3-Leu: SEQ ID NO:4 peptide, C-terminal L-thioester joined to water-soluble polyamide polymer PLP3-Leu (C(Acm)LSQLHSGLFLYQGLLQALEGISPELGPTLDTLQLDVADFATTIWQQMEEL; not fully specified (C-terminus); also: C-terminal thioester joined to PLP3-Leu polyamide polymer)",completely dissolved

# Source: patent US20060173159A1, “Water-soluble thioester and selenoester compounds and methods for making and using the same” (priority 2002, published 2006)
